Source: publication PMC7242444, “Characterization of the zinc finger proteins ZMYM2 and ZMYM4 as novel B-MYB binding proteins” (Scientific Reports, 2020)

Molecular target: T1, GFP-B-MYB (human, UniProt P10244 1-700)
T1 construct: B-MYB, human, full length, fused to eGFP; The truncated derivatives were cloned in peGFP-C1, 2 or 3, which would put GFP at the N-terminus; also called GFP/B-MYB fusion protein; peGFP-B-MYB; source: HEK293T, stably expressing (lentiviral) or transfected, in lysate
T1 sequence (looked up): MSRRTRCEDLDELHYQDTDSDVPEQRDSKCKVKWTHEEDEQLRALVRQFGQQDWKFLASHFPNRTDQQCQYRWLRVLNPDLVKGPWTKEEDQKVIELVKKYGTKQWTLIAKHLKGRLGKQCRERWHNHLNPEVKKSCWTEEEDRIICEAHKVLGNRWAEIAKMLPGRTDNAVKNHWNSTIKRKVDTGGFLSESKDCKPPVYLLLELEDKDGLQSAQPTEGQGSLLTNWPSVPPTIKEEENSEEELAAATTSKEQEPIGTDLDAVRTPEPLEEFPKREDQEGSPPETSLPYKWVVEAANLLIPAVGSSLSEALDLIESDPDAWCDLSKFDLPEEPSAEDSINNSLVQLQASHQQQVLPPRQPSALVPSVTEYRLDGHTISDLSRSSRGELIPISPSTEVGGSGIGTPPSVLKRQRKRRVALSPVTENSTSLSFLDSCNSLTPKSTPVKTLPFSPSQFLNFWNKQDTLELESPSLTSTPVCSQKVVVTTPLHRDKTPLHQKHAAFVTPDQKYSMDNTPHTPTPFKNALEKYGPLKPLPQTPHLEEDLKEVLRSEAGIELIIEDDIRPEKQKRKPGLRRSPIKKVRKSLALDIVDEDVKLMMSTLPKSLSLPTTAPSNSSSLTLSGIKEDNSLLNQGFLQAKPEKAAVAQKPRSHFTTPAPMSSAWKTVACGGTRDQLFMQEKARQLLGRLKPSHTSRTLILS
Assay: co-IP; GFP-trap beads, 3 h at 4 °C, extracts of HEK293T cells in ELB buffer (50 mM Tris/HCl pH 7.5, 120 mM NaCl, 0.2% NP-40) expressing the GFP fusion bait; Western blot of bound proteins; in Fig. 3 cells pre-incubated with 10 μM BrdU and irradiated or not with UV-C
Details: partners not purified

fold increase of binding after UV irradiation (against non-irradiated cells, densitometry): 4.1 fold
B1: zinc finger MYM-type protein 4 (ZMYM4), endogenous (natural protein, human (endogenous in HEK293T), UniProt Q5VZL5 1-1548, looked up)
chain: MAEREVESGPRKRFEQKSGAVFDEIVENCGGIMDTEMSEDIDHNLTPTLDSMSYGMPNQTGSENSLLDEDDYFLNSGDLAGIPVVGSDNEDEQDFSSKDNLVSSIHTDDSLEVERRVTQHESDNENEIQIQNKLKKDFPKQFDQVSVFKSIRKDFSLVRENSKETFSGKEKNRDLTYEREKRLDKPHKDLDSRLKSSFFDKAANQVEETLHTHLPQTPETNFRDSSYPFANKESIGSELGNSFASNIRIKEEPLDDEYDKAMAPQQGLLDKIKDEPDNAQEYSHGQQQKTQEGELKISAVFSVSGSPLAPQLTTGFQPSLASSGMNKMLPSVPATAVRVSCSGCKKILQKGQTAYQRKGSTQLFCSTLCLTGYTVPPARPPPPLTKKTCSSCSKDILNPKDVISAQFENTTTSKDFCSQSCLSTYELKKKPIVTINTNSISTKCSMCQKNAVIRHEVNYQNVVHKLCSDACFSKFRSANNLTMNCCENCGGYCYSGSGQCHMLQIEGQSKKFCSSSCITAYKQKSAKITPCALCKSLRSSAEMIENTNSLGKTELFCSVNCLSAYRVKMVTSAGVQVQCNSCKTSAIPQYHLAMSDGSIRNFCSYSCVVAFQNLFNKPTGMNSSVVPLSQGQVIVSIPTGSTVSAGGGSTSAVSPTSISSSAAAGLQRLAAQSQHVGFARSVVKLKCQHCNRLFATKPELLDYKGKMFQFCGKNCSDEYKKINNVMAMCEYCKIEKIVKETVRFSGADKSFCSEGCKLLYKHDLAKRWGNHCKMCSYCLQTSPKLVQNNLGGKVEEFCCEECMSKYTVLFYQMAKCDACKRQGKLSESLKWRGEMKHFCNLLCILMFCNQQSVCDPPSQNNAANISMVQAASAGPPSLRKDSTPVIANVVSLASAPAAQPTVNSNSVLQGAVPTVTAKIIGDASTQTDALKLPPSQPPRLLKNKALLCKPITQTKATSCKPHTQNKECQTEDTPSQPQIIVVPVPVPVFVPIPLHLYTQYAPVPFGIPVPMPVPMLIPSSMDSEDKVTESIEDIKEKLPTHPFEADLLEMAEMIAEDEEKKTLSQGESQTSEHELFLDTKIFEKDQGSTYSGDLESEAVSTPHSWEEELNHYALKSNAVQEADSELKQFSKGETEQDLEADFPSDSFDPLNKGQGIQARSRTRRRHRDGFPQPRRRGRKKSIVAVEPRSLIQGAFQGCSVSGMTLKYMYGVNAWKNWVQWKNAKEEQGDLKCGGVEQASSSPRSDPLGSTQDHALSQESSEPGCRVRSIKLKEDILSCTFAELSLGLCQFIQEVRRPNGEKYDPDSILYLCLGIQQYLFENGRIDNIFTEPYSRFMIELTKLLKIWEPTILPNGYMFSRIEEEHLWECKQLGAYSPIVLLNTLLFFNTKYFQLKNVTEHLKLSFAHVMRRTRTLKYSTKMTYLRFFPPLQKQESEPDKLTVGKRKRNEDDEVPVGVEMAENTDNPLRCPVRLYEFYLSKCSESVKQRNDVFYLQPERSCVPNSPMWYSTFPIDPGTLDTMLTRILMVREVHEELAKAKSEDSDVELSD
notes: ZMYM4 (zinc finger MYM-type protein 4), endogenous in HEK293T cells; In extracts made without NEM the protein is de-SUMOylated; also called endogenous ZMYM4; source: endogenous, HEK293T lysate
